# What was measured:
# biotinylated hBLyS-ECD [1] = molecular target: T1, biotinylated hBLyS-ECD (human, UniProt Q9Y275 134-285, biotinylated with Biotin-X-X-NHS (molar ratio 7:1); sites not stated); test: competition ELISA; competitor 97A3C2H4
# T1 construct: also called biotinylated immunogen; biotinylated hBLvS-ECD
# Experimental: (§1) The purified human BLyS antibody and hybridoma antibody were subjected to competitive enzyme-linked immunosorbent assay and the epitopes binding by different antibodies were analyzed.
# (§2) Purified BLyS antibody was first diluted to a final concentration of 1.0 μg/mL with PBS, then aliquoted into a 96-well ELISA plate at 50 μL per well, and the plate was subsequently sealed with plastic film and incubated at 4° C. overnight. On the next day the plate was rinsed four times with the plate washing buffer [PBS buffer containing 0.05% (v/v) Tween20] and mixed with blocking solution [PBS buffer containing 0.05% (v/v) Tween20 and 1% (w/w) BSA], and then blocked at 37° C. for 1 hour. The blocking solution was removed, and the competitive antibody and IgG control were diluted to a final concentration of 40 μg/mL with PBS and then aliquoted into the 96-well ELISA plate at 50 μL per well. The biotinylated hBLyS-ECD was then diluted with PBS to a final concentration of 2 ng/mL and pipetted into the 96-well ELISA plate at 50 μL per well. The final concentration of competitive antibody and hBLyS-ECD was 20 μg/mL and 1 ng/mL, respectively. After incubation at 37° C. for 1 hour, the plate was rinsed four times with the plate washing buffer [PBS buffer containing 0.05% (v/v) Tween20]. 100 μL per well of HRP-labeled (horseradish peroxidase) streptavidin (purchased from Sigma) was added into the plate and the plate was incubated at 37° C. for 1 hour. The plate was then washed four times with the plate washing buffer [PBS buffer containing 0.05% (v/v) Tween20]. 100 μL of TMB substrate was aliquoted into each well and after incubation at room temperature for 5 minutes, 100 μL of stop solution (1.0 N HCl) was aliquoted into each well. A₄₅₀ₙₘ values were read by an ELISA plate reader (SpectraMax M5e, purchased from Molecular Device) and the results were shown in Tables 18A-18B. […] The data shown in the table is the inhibitory rate (%) of the binding level of the original antibody to hBLyS-ECD after addition of the competitive antibody.
# biotinylated hBLyS-ECD [2] = molecular target: T1, biotinylated hBLyS-ECD; test: competition ELISA; competitor 111D10D6G3
# Experimental: as §1, §2
# biotinylated hBLyS-ECD [3] = molecular target: T1, biotinylated hBLyS-ECD; test: competition ELISA; competitor 93C6F10D3
# Experimental: as §1, §2
# biotinylated hBLyS-ECD [4] = molecular target: T1, biotinylated hBLyS-ECD; test: competition ELISA; competitor 78C11D2D12
# Experimental: as §1, §2
# biotinylated hBLyS-ECD [5] = molecular target: T1, biotinylated hBLyS-ECD; test: competition ELISA; competitor 35E6F7C3
# Experimental: as §1, §2
# biotinylated hBLyS-ECD [6] = molecular target: T1, biotinylated hBLyS-ECD; test: competition ELISA; competitor 67A2E1D10
# Experimental: as §1, §2
# biotinylated hBLyS-ECD [7] = molecular target: T1, biotinylated hBLyS-ECD; test: competition ELISA; competitor 8E7D9C7F5
# Experimental: as §1, §2
# [8] = molecular target: T2, extracellular domain of human BLyS protein (hBLyS-ECD), His-tagged, Ala134-Leu285 (human, UniProt Q9Y275 134-285); test: cell-based or functional assay
# T2 sequence (Q9Y275 134-285): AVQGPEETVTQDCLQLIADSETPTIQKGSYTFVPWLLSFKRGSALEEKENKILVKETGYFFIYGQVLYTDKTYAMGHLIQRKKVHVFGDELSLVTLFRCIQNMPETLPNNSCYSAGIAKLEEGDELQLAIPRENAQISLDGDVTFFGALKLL
# [9] = molecular target: T2, extracellular domain of human BLyS …; test: cell-based or functional assay; remark: listed apart in the source
# [10] = molecular target: T2, extracellular domain of human BLyS …; test: SPR (Biacore), antibody captured by anti-human Fc, hBLyS-ECD as analyte
# biotinylated hBLyS-ECD [11] = molecular target: T3, biotinylated hBLyS-ECD (human, UniProt Q9Y275 134-285, biotinylated with Biotin-X-X-NHS (molar ratio 7:1), sites not stated); test: ELISA: biotinylated hBLyS-ECD captured on streptavidin, antibody titrated, HRP secondary antibody
# T3 construct: The hBLyS-ECD of Embodiment 1 after biotinylation (Embodiment 2); also called biotinylated immunogen; BLyS protein; not shown: His tag of the pCPC vector
# T3 sequence (Q9Y275 134-285): as above
# T1 sequence (Q9Y275 134-285): as above
Binder,inhibitory rate (%) (biotinylated hBLyS-ECD [1]),inhibitory rate (%) (biotinylated hBLyS-ECD [2]),inhibitory rate (%) (biotinylated hBLyS-ECD [3]),inhibitory rate (%) (biotinylated hBLyS-ECD [4]),inhibitory rate (%) (biotinylated hBLyS-ECD [5]),inhibitory rate (%) (biotinylated hBLyS-ECD [6]),inhibitory rate (%) (biotinylated hBLyS-ECD [7]),also measured
"78C11D2D12 (antibody, V domains shown, Mouse hybridoma antibody purified on Protein G) VH: QVQLQQSGAELVRPGTSVKISCKASGYAFTNYWLGWVKQRPGHGLEWIGDIYPGSGNTYYNEKFKGKATLTADKSSSTAYMQLSSLTSEDSAVFFCAAYLYAMDYWGQGTSVTVSS VL: QIVLTQSPAIMSASPGEKVTITCSASSSVSYMHWFQQKPGTSPKLWIYSASNLASGVPARFSGSGSGTSYSLTISRMEAEDAATYYCQQRGSYPFTFGSGTKLEIK",46%,95%,58%,88%,29%,95%,37%,–
"97A3C2H4 (antibody, V domains shown, Mouse hybridoma antibody purified on Protein G) VH: EVKLVESGGGLVQPGGSLKLSCAASGFTFSTYTMSWVRQTPEKRLEWVAYISYGGGSTSYPDTVKGRFTISRDNAKNTLYLQMSSLKSEDTAIYYCTRHVTVVENSMDYWGQGTSVTVSS VL: DILLTQSPDILSVSPGERVSFSCRASQSIGTSIHWYQQRTNGSPRLLIKYVSESFSGTPSRFSGSGSGTAFTLTINSVESEDIADYYCQQTHSWPWTFGGGTKLEIK",89%,93%,93%,96%,55%,96%,93%,–
"L1D12 (antibody, V domains shown) VH: QVQLVQSGGGLVQPGGSLRLSCAASGFTVSSNYMSWVRQAPGKGLEWVSVIYSGGSTYYADSVKGRFTISRDNSKNTLYLQMNSLRAEDTAVYYCARGFHDILTGYGMDVWGQGTTVTVSS VL: SSELTQDPAVSVALGQTVRITCQGDSLRNYYAGWYQQKPGQAPVLVIYGKNNRPSGIPDRFSGSSSGNTASLTITGTQAEDEADYYCSSRDNSGTHLVEFGGGTKLTVL",–,–,–,–,–,–,–,"Proportion of B lymphocytes in splenocytes (%), in vivo in mice [8]: 26.8%"
"35E6F7C3 (antibody, V domains shown, Mouse hybridoma antibody purified on Protein G) VH: EVQLQQSGAELVKPGASVKLSCTAAGFNIQDTYIHWVKQRPEQGLEWIGRIDPANANTVYDPKFQGKATITADTSSNTAYLQVSSLTSEDTAVYYCASPVITAGFAYWGQGTLVTVSA VL: QIVLTQSPAIMSASPGEKVTMTCGASSSVNYVHWYQQKSGTSPKRWIYDTSKLASGVPARFSGSGSGTSYSLTISSMEAEDAATYYCQQWTRSPLTFGAGTKVELK",26%,38%,33%,36%,91%,33%,27%,–
"c93C6F10D3 (antibody, V domains shown) VH: EVQLVESGGGLVTPGGSLKLSCVASGFAFSTYGMSWVRQTPERRLEWVAYISGGGGSIYYPDSVKGRFTISRDNAKNILYLQMSSLKSEDTAMYHCTRHPDLLLRYDYALDHWGQGTSVTVSS VL: DIQMTQSPASLSASVGETVTITCRASENIHIYLAWYQQKQGKSPQLLVYNGKTLADGVPSRFSGSGSGTQYSLKINTLQPEDFGNYYCQHFWNSTWTFGGGTKLEIK",–,–,–,–,–,–,–,"OD450 nm (as headed), mouse B lymphocyte proliferation; antibody 0 nM [9]: 4320; OD450 nm (as headed), mouse B lymphocyte proliferation; antibody 0.000256 nM [9]: 4600; OD450 nm (as headed), mouse B lymphocyte proliferation; antibody 0.00128 nM [9]: 4520; OD450 nm (as headed), mouse B lymphocyte proliferation; antibody 0.0064 nM [9]: 4920; OD450 nm (as headed), mouse B lymphocyte proliferation; antibody 0.032 nM [9]: 4520; OD450 nm (as headed), mouse B lymphocyte proliferation; antibody 0.16 nM [9]: 4300; OD450 nm (as headed), mouse B lymphocyte proliferation; antibody 0.8 nM [9]: 1090; OD450 nm (as headed), mouse B lymphocyte proliferation; antibody 4 nM [9]: 527; OD450 nm (as headed), mouse B lymphocyte proliferation; antibody 20 nM [9]: 434; OD450 nm (as headed), mouse B lymphocyte proliferation; antibody 100 nM [9]: 389; Kd [10]: 0.386 nM; koff [10]: 0.000212 s⁻¹; kon [10]: 549000 M⁻¹ s⁻¹; Proportion of B lymphocytes in splenocytes (%), in vivo in mice [8]: 27.1%"
"93C6F10D3 (antibody, V domains shown, Mouse hybridoma antibody purified on Protein G) VH: EVQLVESGGGLVTPGGSLKLSCVASGFAFSTYGMSWVRQTPERRLEWVAYISGGGGSIYYPDSVKGRFTISRDNAKNILYLQMSSLKSEDTAMYHCTRHPDLLLRYDYALDHWGQGTSVTVSS VL: DIQMTQSPASLSASVGETVTITCRASENIHIYLAWYQQKQGKSPQLLVYNGKTLADGVPSRFSGSGSGTQYSLKINTLQPEDFGNYYCQHFWNSTWTFGGGTKLEIK",90%,95%,79%,92%,42%,97%,94%,–
"c93C6F10D3 (antibody, human IgG1, V domains shown, also called BLyS chimeric antibody) VH: EVQLVESGGGLVTPGGSLKLSCVASGFAFSTYGMSWVRQTPERRLEWVAYISGGGGSIYYPDSVKGRFTISRDNAKNILYLQMSSLKSEDTAMYHCTRHPDLLLRYDYALDHWGQGTSVTVSS VL: DIQMTQSPASLSASVGETVTITCRASENIHIYLAWYQQKQGKSPQLLVYNGKTLADGVPSRFSGSGSGTQYSLKINTLQPEDFGNYYCQHFWNSTWTFGGGTKLEIK",–,–,–,–,–,–,–,EC50 (read off the curve) (biotinylated hBLyS-ECD [11]): ~0.07 nM
"c67A2E1D10 (antibody, human IgG1, V domains shown, also called BLyS chimeric antibody) VH: EVQLQQSGAELVKPGASVKLSCTASGFNIKNYYMHWVKQRTEEGLEWIGRIDPEDGETKYAPKFQAKATITADTSSNTAYLQLSSLTSEDTAVYFCARKGYYGNYGAWFAYWGQGTLVTVSA VL: DIQMTQSPASLSVSVGETVTITCRASEDLYSNLAWYQQKQGKSPQLLVYAATFLADGVPSRFSGSGSGTQYSLKINSLQSEDFGNYYCQHFWGTPPTFGGGTKLEIK",–,–,–,–,–,–,–,EC50 (read off the curve) (biotinylated hBLyS-ECD [11]): ~0.1 nM
"67A2E1D10 (antibody, V domains shown, Mouse hybridoma antibody purified on Protein G) VH: EVQLQQSGAELVKPGASVKLSCTASGFNIKNYYMHWVKQRTEEGLEWIGRIDPEDGETKYAPKFQAKATITADTSSNTAYLQLSSLTSEDTAVYFCARKGYYGNYGAWFAYWGQGTLVTVSA VL: DIQMTQSPASLSVSVGETVTITCRASEDLYSNLAWYQQKQGKSPQLLVYAATFLADGVPSRFSGSGSGTQYSLKINSLQSEDFGNYYCQHFWGTPPTFGGGTKLEIK",75%,86%,44%,80%,18%,93%,63%,–
"111D10D6G3 (antibody, V domains shown, Mouse hybridoma antibody purified on Protein G) VH: QVQLQQPGAELVKPGASVKMSCKASGYTFTRHWITWVKQRPGQGLEWIGDIFPGSGSINYNEKFKSEATLTVEKSSSTAYMQLSSLTSEDSAVYYCARGDVDVWGTGTTVTVSS VL: DIQMTQSPSSLSASLGERVSLTCRASQEIRGYLSWLQQKPNGTIKRLIYAASTLDSGVPKRFSATRSGSDFSLTISSLESEDFADYYCLQYASYPFTFGSGTKLEIK",26%,95%,41%,86%,22%,96%,27%,–
